In the supplement of paper PMC9170038:

Tested on: MS2 coat protein
Assay: apparent KD of MS2 coat protein; designed switch direction (-1 OFF switch, 1 ON switch): -1; higher = weaker reporter binding
In short: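 Designed RNA switches sharing common flanks were transcribed on Illumina chips by stalled E. coli RNA polymerase. They were titrated with SNAP-549-labelled MS2 coat protein, from 0.7 or 1.5 nM doubling to 3 µM, in Tris-HCl pH 7.5 buffer with KCl, MgCl2, BSA, DTT, tRNA and Tween-20. Titrations ran without input, with 200 uM small-molecule ligand, or with an oligonucleotide input. The apparent KD of each design is the median over its clusters, after curve-fitting of normalised cluster fluorescence.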

[1] = input ligand: microRNA oligo, concentration not stated
[2] = Eterna round: R95, input ligand: FMN 200 uM
[3] = Eterna round: R95, input ligand: microRNA oligo, concentration not stated
[4] = Eterna round: R95, input ligand: none

Sequence	apparent KD of MS2 coat protein (input ligand: FMN 200 uM) [nM]	apparent KD of MS2 coat protein [1] [nM]	apparent KD of MS2 coat protein (input ligand: none) [nM]	apparent KD of MS2 coat protein [2] [nM]	apparent KD of MS2 coat protein [3] [nM]	apparent KD of MS2 coat protein [4] [nM]
GGUACUCAAAGAGUACCAAUACGAACAUGAGGAUCACCCAUGUAGGAUAUGCUACUCAAAGAGUAGCAGAAGGACGUGAACCCU [Far Half Aptamer] (Eterna round: R96, puzzle: Exclusion NG 3)	164	26.5	40.5	–	–	–
GGUACUCAAAGAGUACCAAUACGAACAUGAGGAUCACCCAUGUAGGAUAUGCUACUCAAAGAGUAGCAGAAGGAUAUGAUCCAU [Far Half Aptamer v13] (Eterna round: R96, puzzle: Exclusion NG 3)	–	60.5	–	–	–	–
GGUACUCAAAGAGUACCAAUACGAACAUGAGGAUCACCCAUGUAGGAUAUGCUACUCAAAGAGUAGCAGAAGGAUAUGAUCGAU [Far Half Aptamer v14] (Eterna round: R96, puzzle: Exclusion NG 3)	45.6	27.9	40.6	–	–	–
GGUAGAGUGGUAGGAUAUCCGUCUGUUUCAGUCGGAGAAGGGCCACAGUCACUGGGUCCUAAUAUCAUGGAGACCUGAUCUACU [pwkr exNG1 F6.13] (Eterna round: R96, puzzle: Exclusion NG 1)	785	337	385	–	–	–
GGUCAAGAACAGAUCCGCGCUGCCAUUGACCGCUCAUUUACAUGAGGAUCACCCAUGUUUUUUGCUCAUCUUGUUAC [Usdila] (puzzle: Sensor v3, turn-off variant 2)	–	–	–	20.2	62.2	19.8
GGUCAGAUGGUAGGAUAUCCAUAUCGAGUGACCCUUUCAUAACAUGAGGAUCACCCAUGUUGGUGGGAGAAGGGCCGUACGGCG [salish99_ExNG02_R04_019] (Eterna round: R96, puzzle: Exclusion NG 2)	17.2	14.4	22	–	–	–
GGUCCACGAGGAUAUCGAUUAUAGUACAUGAGGAUCACCCAUGUUGUCCAGGUUUCGUUUCGAGAAGGCGUGGGUU [LRO-Ex5-01] (puzzle: Exclusion 5)	–	–	–	–	88.1	–
GGUCGCAGGACAGGAUAUCCAAGCGAUCUAACAUGAGGAUCACCCAUGUGCUAAGGCAGAGGGACGGAGAAGGGUCGAUCGGCC [Inqusodire] (Eterna round: R96, puzzle: Exclusion NG 2)	166	42.4	58.3	–	–	–
GGUCGGCGAGGAUAUACAUGAGGAUCACCCAUGUGAUAGAUUGCACGCGUACGUGUAUGUAGAAGGCGCUGACG [JL-ex3-3.30 salish99 mod] (Eterna round: R96, puzzle: Exclusion 3)	433	24.7	32.8	–	–	–
GGUCGGCGAGGAUAUACAUGAGGAUCACCCAUGUGAUAGAUUGCACGCGUACGUGUAUGUAGAAGGCGCUGACG [JL-ex3-3.30 salish99 mod] (puzzle: Exclusion 3)	–	–	–	811	29.6	32.8
GGUCUGCGAGGAUAUACAUGAGGAUCACCCAUGUGAGUGAAACUAGUGAGGUCGAUUGGUAGAAGGCGCGGACG [Mat - Exclusion 3 - Mod of JL D82] (puzzle: Exclusion 3)	–	–	–	17.7	63	17.5
GGUCUGCGAGGAUAUACAUGAGGAUCACCCAUGUGCGAGAAACUAGUGAGGUCGGUUGGUAGAAGGCGCGGACG [Mat - Exclusion 3 - Mod of JL D89] (puzzle: Exclusion 3)	–	–	–	13.9	14	32.8
GGUGCGUAUGUGAGGAUAUGCUGGUCCUUGGAUCGGCAGAAGGCACAUGAGGAUCACCCAUGUGGUGUCGUUCC [salish99_Bmod_ex4_100] (puzzle: Brourd's mod of Exclusion 4)	–	–	–	–	114	–
GGUGCGUUUGUGAGGAUAUGCUGGUCCUUGGUUCGGCAGAAGGCACAUGAGGAUCACCCAUGUGGUGUCGUGCC [salish99_Bmod_Ex4_045] (puzzle: Brourd's mod of Exclusion 4)	–	–	–	–	33.1	–
GGUGCGUUUGUGAGGAUAUGCUGGUCCUUGGUUCGGCAGAAGGCACAUGAGGAUCACCCAUGUGGUGUCGUUCC [salish99_Bmod_Ex4_047] (puzzle: Brourd's mod of Exclusion 4)	–	–	–	–	13.9	–
GGUGGACAUGAGGAUCACCCAUGUGAGGAUAUCGGCCGGCUAGUGGUGGCUGGCUUCUCGAGAAGGCGCAUAGU [Exclusion 1 V76] (puzzle: Exclusion 1)	–	–	–	–	46.8	–

Sequence	apparent KD of MS2 coat protein (input ligand: FMN 200 uM) [nM]	apparent KD of MS2 coat protein [1] [nM]	apparent KD of MS2 coat protein (input ligand: none) [nM]	apparent KD of MS2 coat protein [2] [nM]	apparent KD of MS2 coat protein [3] [nM]	apparent KD of MS2 coat protein [4] [nM]
GGUGGACAUGAGGAUCACCCAUGUGAGGAUAUCGGCCGGUUCGUGGUGGCUGGCGUCUCGAGAAGGCACAUAGU [Exclusion 1 V69] (puzzle: Exclusion 1)	–	–	–	–	114	–
GGUGGACAUGAGGAUCACCCAUGUGAGGAUAUCGGCUAUCUUAUCGCUGUCGGUUGCUCGAGAAGGCACAUUGU [Exclusion 1 V96] (puzzle: Exclusion 1)	–	–	–	–	71.2	–
GGUGGACAUGAGGAUCACCCAUGUGAGGAUAUCGGCUGGCUAGCGGCUGACGGCUGCUCGAGAAGGCGCAUUGU [Exclusion 1 V85] (puzzle: Exclusion 1)	–	–	–	–	50.5	–
GGUUGGCGAGGAUAUACAUGAGGAUCACCCAUGUGAGAAUAAAAAGUGAGGAAGAAAAGUAGAAGGCGCUGACG [Mat - Exclusion 3 - Mod of Salish D5] (puzzle: Exclusion 3)	–	–	–	76.5	31.6	36.3
GGUUGGCGAGGAUAUACAUGAGGAUCACCCAUGUGAGAGAAAAAAGUGAGAACGAAAAGUAGAAGGCGCUGACG [salish99-ex3-25] (Eterna round: R96, puzzle: Exclusion 3)	315	67.5	98.8	–	–	–
GGUUGGCGAGGAUAUACAUGAGGAUCACCCAUGUGAGAGAAAAAAGUGAGAACGAAAAGUAGAAGGCGCUGACG [salish99_ex3_r3_057] (puzzle: Exclusion 3)	–	–	–	272	122	76.9
GGUUGGCGAGGAUAUACAUGAGGAUCACCCAUGUGAGAGAAAAUAGUGAGGAAGAAAAGUAGAAGGCGCUGACG [salish99_ex3_r3_014] (puzzle: Exclusion 3)	–	–	–	98.1	47.7	37.5
GGUUGGCGAGGAUAUACAUGAGGAUCACCCAUGUGGUCCUGUGGAAAAAAAAACCUUUGUAGAAGGCGCGGGUC [salish99_ex3_r4_032] (Eterna round: R97, puzzle: Exclusion 3)	415	–	534	–	–	–
GUAAAGUGAGGAUAUGGUAAAUUAAUUAUUUAUUAAUUAAUCCAGAAGGCACAUGAGGAUCACCCAUGUAAAUG [Mat - Exclusion 4 - D94] (puzzle: Exclusion 4)	–	–	–	–	26.5	–
GUAACAUGCUGGUGAUCAUACAUGAGGAUCACCCAUGUAACAAGCUUUUUGUUCGUCUUAUAAGAUUACUAGUAUGU [Stov1/10-B2] (Eterna round: R97, puzzle: Sensor, turn-off variant 1)	33	–	39.7	–	–	–
GUAACAUGCUGGUGAUCAUACAUGAGGAUCACCCAUGUAACAAGCUUUUUGUUCGUCUUAUAAUUUAAGAUCACCAG [Stov1/7-B3] (Eterna round: R97, puzzle: Sensor, turn-off variant 1)	19.8	–	21.8	–	–	–
GUAAUUAAUGUAGGAUAUGCAAGGCGAACCUAAGCAGAAGGACAUGAGGAUCACCCAUGUAUUGCGGUCUGCGUUCAGAUCGCU [salish99_ExNG1_r4_009] (Eterna round: R96, puzzle: Exclusion NG 1)	–	15.4	–	–	–	–
GUACAACAUGAGGAUCACCCAUGUGAGGAUAUGCGAAUUUCAUCAAAAGAUGAAAUUUGCAGAAGGCACAGUAC [Omei Ex1 A8] (Eterna round: R97, puzzle: Exclusion 1)	26.6	–	32.8	–	–	–
GUACCAAUUGUAGGAUAUGGAUCCGAUUAGGAUCCAGAAGGACAUGAGGAUCACCCAUGUACAUGAGGAUCACCCAUUAGGUAC [Fiskers ExNg1 - 12] (Eterna round: R96, puzzle: Exclusion NG 1)	53.2	30.9	46.1	–	–	–
GUACUAGAAUAUCAGUCGCACAUGAGGAUCACCCAUGUCAUGGGUAGAUAAAUAAAUAAAGAUACUGCUCGUCUUAU [Cac sensor turnoff var1 sub1] (Eterna round: R97, puzzle: Sensor, turn-off variant 1)	277	–	399	–	–	–
GUACUGACAGGAUAUACAUGAGGAUCACCCAUGUCCUUAUGCUGACAAAAGUCAGCAAGUAGAAGGGUCUGUAC [Omei Ex3 Model Bachelor's Dilema v2] (Eterna round: R97, puzzle: Exclusion 3)	1270	–	88.4	–	–	–
